Assay: yeast display, Sf9 membrane polyspecificity reagent, FACS + sequencing; frameworks hold sequencing errors
In short: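 After 36–48 hours of galactose induction, yeast (Saccharomyces cerevisiae BJ5465) displaying a synthetic nanobody library were stained at 4 °C for 1 hour with 10% biotinylated, detergent-solubilized Sf9 membrane reagent. Streptavidin microbeads enriched the stained cells before FACS sorting into low and high (top ~1%) gates on anti-HA and streptavidin fluorescence. Each clone's polyreactivity label reflects its gate of origin.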

Sequence | polyreactivity (PSR sort gate)
QVQLVESRRGLVQAGGSLRLSCAASGFTFYIYAMGWYRQAPGKERELVAAIIFRGGSTYYADSVKGRFTISRDNAKNTVYLQMNSLKREDTAVYYCAAVPRTYSGYYYWGHGTQVTVSS | high polyreactivity
QVQLVESSGGLVQAGGSLRLSCAASGLTFKRYAMGWYRQAPGKERELVAAINSGGSTNYADSVKGRFTISRDNAKNTVYLQMNSLKPEDTAVYDCAASTSRYYWYALRDYWGQGTQVTVSS | high polyreactivity
QVQLVESSGGLVQAGVSLRLSFAASGRIILNYPIGLYRKAPGKERELVAAITSDGSRSYADSVKGRFTISRDNAKNSVYLQMKSLKPEDTAVYYCANDFFEHSRVSHTYSSSKYDYGGQGTQVTVSS | low polyreactivity
QVQLVESVGGFVQAGGSLRLSCAASGRTFGRYAMGWYRQAPGKEWELVAAITRSGSSTYYADSVKGRFTISRDNAKNTVYLQMNSMKPEDTAVYYCAALYGPFYSTGEYWGQGTQVTVSS | high polyreactivity
QVQLVESVGGLDQAGGSLRFICASSAHTISSYAMGWYRQAPGKERELVAAISVSATRTYYADSVKGRFTISRDNAKNTVYLQMSSLNPEDPAVYYFAARPVQFTYGYWGQGTQVTVSS | high polyreactivity
QVQLVESVGGLDQAGGSLRLSCAASGFTFDINTMGWYRQEPGKERELVAAITYSGGSTYYADSVKGRFTISRDNAKNTVYLQMNSLKPEDTAVYYCATTWYFVASWYVAIYDYWGQGTQVTVSS | low polyreactivity
QVQLVESVGGLDQAGGSLRLSCAASGRIIAWYPMGWYRQSPGKERELVAAISWNGGRTYYADSVKGRFTISRDNAKNTVYLQINSLKPEDTAVYYCAAGKTPQKYGGFNSWGQGTQVTVSS | high polyreactivity
QVQLVESVGGLDQAGGTLRLSCAASGSTFKYNGMGWYRQAPGKERELVAAISWRAGSTYADSVKGRFTISRDNAKNTVYLLMYSLKPEDTEVYYCAARLKYWGDYYYWGQGTQVTVSS | low polyreactivity
QVQLVESVGGLDQAGVSLRLSSAASGSTFGSYVMGWYRQSPGKERELVASISDGGITNYADSVKGRFTISRDNAKNTVYLQMNSLNPEDTAVYYCAAATRPFSDYTTEGYYYWGQGTQVTVSS | low polyreactivity
QVQLVESVGGLFQAGGSLRLSCAASGSIFAYNTMGWYRQAPGKEREFVAAISWRGGSTYYADSVKGHFTISGDNAKNTFYLQMNSLKPEDTAVYYCNARYRNTFYSRRYDYWGQGTQVTVSS | low polyreactivity
QVQLVESVGGLGQAGGSLRLSCAASGYIFRPDAMGWYRQEPGKERELVAVISSGGSTYYADSVKGRFTISRDNAKNTVYLQMNSLKPEDTAVYYCNRTLPSIGGTTYEYWRQGTQVTVSS | low polyreactivity
QVQLVESVGGLVKAGGSLRLSCAASGFIFYRYTMGWYRQDPGKERELVAGISSRGTRTYYADSVKGRFTISRDNAKNTVYLQMNSLKPEDTAVYYCAAVLTQPKKVNYWGQGTQVTVSS | high polyreactivity
QVQLVESVGGLVQAGASHRLSCAASGLNFFKYTMGWYIQAPGKERELVAAISRRGGSTYYADSVKGRFTISRDNAKNTVYLQMNSLKPDDTAVYYCNKRLGTGYYYGYDYWGQGTQVTGSS | high polyreactivity
QVQLVESVGGLVQAGASLRLSCAASGGTFPVYAMGWYRQAPGKEREMVAAISYSGVTTYYADSVKGRFTISRDNAKNTVYLQMNSLKPDDTAVYYCNADWRRWYIFSYDYWGQGTLVTVSS | low polyreactivity
QVQLVESVGGLVQAGASLRLSCAASGITFVYYALGWYRQAPGKERELVAAITSTGGSTYYADSVKGRFTISRDNAKNTVYLQMNSLKPEDTSVYYCAAVPRGTQGAMDYWGQGTQVTVSS | low polyreactivity
QVQLVESVGGLVQAGGNLRLSCAASGIIFSRYALGWYRQAPGKERELVAAITRSGGDTYYADSVKGRFTISRDHAKNTVYLQMNSLKPEDTAVYYCAADRTWYPWVATGYYWGHGTQVTVSS | low polyreactivity
QVQLVESVGGLVQAGGRLRLSCAASGFIFYEYAMGWYRQAPGKERELDPAITSGGSTDYADSVKGLFTISRDNAKNTVYLQMNSLKPEDTAVYYCNADLFTGYYWYNYCGQGTQVTVSS | low polyreactivity
QVQLVESVGGLVQAGGSHRLSCAASGSIFYYYDMGWYRQGPGKERELFAAINRGVGSTFYADSVKGRFTISRENAKNTVYLQMNSLKPEDTAVDYCSSRWYSRTRAYNYWGQGTQVTVSS | low polyreactivity
QVQLVESVGGLVQAGGSLLLSCAASGGIFWVYAMGWYRQAPGKERELVAAISNSDTSTSYADSVKGRFTISRDNAKNTVFLQMNSLKPEDTAVYYCNADSPSLSGDYWGQGTQVTVSS | low polyreactivity
QVQLVESVGGLVQAGGSLPLSGAASGSILGFNAMGWSRQAPGKDRELVASITTSGGSTYFADSVKGRFTISRDNAKNTVYLQMNSLKPEDTAVYYCAAYRRYQFVTYYYWGQGTQVTVSS | high polyreactivity
QVQLVESVGGLVQAGGSLRFTCAASGGTFRVNAMGWYRQAPGKEREFVAAISGSGSSTYYADSVKGRFTISRDNAKNTVYLQMNSLKPEDTAVYYCAARSGVGGDNDYWGQGTQVTVSS | low polyreactivity
QVQLVESVGGLVQAGGSLRIICAASGITLAWYSMGWYRKAPGKERELVASISSSGSTNYADSVKGRFTISRDNAKNTVYLQMNSLIPEETAVYYCNKDYLLLHYYIYVIEGDYWGQGTQVTVSS | low polyreactivity

Sequence | polyreactivity (PSR sort gate)
QVQLVESVGGLVQAGGSLRISCAASGFIFEVYAMGWYRQAPGKERELIAAIRWSGTSTYYAYSVKGRFTISRDNAKNTFYLQMNSLKPEDTAVYYCAADSWDWHIGGEDYWGQGTQVTVSS | low polyreactivity
QVQLVESVGGLVQAGGSLRISCAASGSIFAINAMGWYRQAPVKERELVAAIRTAGRTYYADSVKGRFTISRDNAKNTVYLQMNSLKPEDSSVYDCNDGGKWIGSDYWGQGTQVTVSS | high polyreactivity
QVQLVESVGGLVQAGGSLRLICAASGSTFNWYAMGWYRQAPGKERDLVADITWRDGSTYYADSVKGRFTISRDNAKNTVYLQMNSLKPDDPAVYYCADDYTYWGIFFGYWGQGTQVTVSS | high polyreactivity
QVQLVESVGGLVQAGGSLRLSCAAAGRTFTLYAMGWYRQATGKERELVAAIRWSGSSTYSADSVKGRFTISRDNAKNTVYLQMNSLKPEDTAVYACDARAGRYDRYGYWGQGTQVSVSS | high polyreactivity
QVQLVESVGGLVQAGGSLRLSCAASALAMGWYRHAPGKERELVAVITSDGRTYYADSVKGRFTISRDNAKNTVYLQMNSLKPEDTAVYYCARDSRTIRYYAWFYPFRYDYWGQGTQVTVSS | low polyreactivity
QVQLVESVGGLVQAGGSLRLSCAASALTFQNNAMGWYRQAPGKEREFVATITSVGRTNYADSVKGRFTISRDNAKNTVYLQMNSLNPEDTAVYYCAASKARWPRGGSKYYYWGQGTQVTVSS | high polyreactivity
QVQLVESVGGLVQAGGSLRLSCAASGFIFASYAMGWYRQAPGKERELVAAISWRGGSTYYADSVKGRFTISRDNAKNTVYLQMNSLKPEDTAVYYCKAYVYVGTGRGYDTLDYWGQGTQVTLSS | low polyreactivity
QVQLVESVGGLVQAGGSLRLSCAASGFIFSPYAMGWYRQAPGKERELVAAISWNGGRTYYADSVKGRFTISRDYAKNTVYLQMNSLKPEDTAVYYCAASFRNPYSHGYWGQGTQVTVSS | high polyreactivity
QVQLVESVGGLVQAGGSLRLSCAASGFILRVNDMGWYRQAPGKERELVAAISQGDGSTYYADSVKGRFTISSDNAKNSVYLQMNSLKPEDNAVYYCNAELYRDLGGYDHWGQGTQVTVSS | low polyreactivity
QVQLVESVGGLVQAGGSLRLSCAASGFTFARYAMGWYIQAPGKERELVAAISISGGRTYYADSVKGRFTISRDNAKNTVYLQMNSLKPEDTAVYYCNKGHVPSYDYNYWGQGTQVTVSS | high polyreactivity
QVQLVESVGGLVQAGGSLRLSCAASGFTFHAYAMGWYRQAPGKERELVAVITRGGSTYYADSVKRRFTISLDNAKNTVYLQMKSLKPEDTAVYYCAAVRTKDWRGPEMDYWGQGTQVTVSS | high polyreactivity
QVQLVESVGGLVQAGGSLRLSCAASGFTFVYNAMGWYRQAPGKEREMVAAISSRGGSTFYADSVKGRFTISRDNAKNTVYLQMNSLKPEDTAVYYCNAVPGWTYDYWGQGTQVTVSS | high polyreactivity
QVQLVESVGGLVQAGGSLRLSCAASGITFGYNAMGWYRQAPGKERELVASISYSGDSTYYADSVKGRFTISRDNAKNSVYLQMNSLKPEDTGVYYCAAGRQVLKRRYDYWGQGTQVTVSS | low polyreactivity
QVQLVESVGGLVQAGGSLRLSCAASGITFYGYTMGWYIQAPGKERELVAAITSGGITYYADSVKGRFTISRDNAKNTVYLQMNSLKPEDTAVYYCAARRYCYTSITWYDYWGQGTQVTVSS | high polyreactivity
QVQLVESVGGLVQAGGSLRLSCAASGITFYYYVMGWYRQAPGKERELVAAIDTGDSTYYADSVKGRFTISRDNAKNTVYLQMNSLKPEDTAVYYCAVDYEADNELNGPDQEYGRDSWGQGTQVTVSS | low polyreactivity
QVQLVESVGGLVQAGGSLRLSCAASGLIFLVNAMGWYRQAPGKERELVAAIDRDGGITYADSVKGRFTISRDNAKNTVYLQLNSLKPEDTAVYYCAADPSSYGRFTYDYWGQGTQVTVSS | low polyreactivity
QVQLVESVGGLVQAGGSLRLSCAASGLTFYVYAMGRYRQAPGKERELVAAITQNGGTTYYADSVKGRFTISRDNAKNTVYLQMNSLKPEDTAVYNCAARRLYAGHQYDYWGQGTQVTVSS | high polyreactivity
QVQLVESVGGLVQAGGSLRLSCAASGNTFYAYAMGWYRQAPGKERELVAAIRKSGGNTYYADSVKGRFTISRYNAKNNVYLQMYSLKPEDTAVYYCAARYRGYAFLNYDYWGQGTQVTVSS | low polyreactivity
QVQLVESVGGLVQAGGSLRLSCAASGRIFAPYAMGWYRQAPGKERELVAAIRWRGGSTSYADSVKGRFTISRDNAKNTVYLQMNSLKPEDTAVYYCNADYGFSFYWYDYWGQGTQVTVSS | low polyreactivity
QVQLVESVGGLVQAGGSLRLSCAASGRIFARYAMGWYRQAPGKERELVAAITKSVGSTYYADSVKGRFTISRDNAKKTVYLQMNSLKPEDTAVYYCARVVADSEYDYWGQGTQVTVSS | high polyreactivity
QVQLVESVGGLVQAGGSLRLSCAASGRIFGVYAMGWYRQAPGKERELVAAISEGGGSTNYADSVKGRFTISRDNAKNTVYLQMNSLKPEDTAVYYCAATYRTGVRRYYSWGQGTQVTVSS | low polyreactivity

From the nanobody polyreactivity screen of Harvey et al. (2022)
